Assay results from ChEMBL document CHEMBL2074321, “A continuous fluorescence assay for the study of P-glycoprotein-mediated drug efflux using inside-out membrane vesicles” (Anal Biochem, 1999).

Test system: COc1cc2c(c(OC)c1OC)-c1ccc(OC)c(=O)cc1[C@@H](NC(C)=O)CC2
Test: TP_TRANSPORTER: uptake in membranes from CEM/VLB100 cells
Format: functional, cell membranes, Membrane

Substance: ATP-dependent translocase ABCB1 (Homo sapiens)
- Km: 1.33 µM
